Experimental data from IntAct's records for PubMed 14660673.

B1: F-box protein MET30 (Saccharomyces cerevisiae), P39014 (parent)
chain: MRRERQRMMSFEDKDKDDLDNSNSNNSSEMTDTAMMPPLKRLLITGSSDDLAQGSSGKKKMTMATRSPSSSPDLATNDSGTRVQPLPEYNFTKFCYRHNPDIQFSPTHTACYKQDLKRTQEINANIAKLPLQEQSDIHHIISKYSNSNDKIRKLILDGILSTSCFPQLSYISSLVTHMIKIDFISILPQELSLKILSYLDCQSLCNATRVCRKWQKLADDDRVWYHMCEQHIDRKCPNCGWGLPLLHMKRARIQQNSTGSSSNADIQTQTTRPWKVIYRERFKVESNWRKGHCRIQEFKGHMDGVLTLQFNYRLLFTGSYDSTIGIWDLFTGKLIRRLSGHSDGVKTLYFDDRKLITGSLDKTIRVWNYITGECISTYRGHSDSVLSVDSYQKVIVSGSADKTVKVWHVESRTCYTLRGHTEWVNCVKLHPKSFSCFSCSDDTTIRMWDIRTNSCLKVFRGHVGQVQKIIPLTIKDVENLATDNTSDGSSPQDDPTMTDGADESDTPSNEQETVLDENIPYPTHLLSCGLDNTIKLWDVKTGKCIRTQFGHVEGVWDIAADNFRIISGSHDGSIKVWDLQSGKCMHTFNGRRLQRETQHTQTQSLGDKVAPIACVCIGDSECFSGDEFGCVKMYKFDLND

Variants of: B1
Conditions: with skp1_yeast SKP1, P52286
Chain of skp1_yeast SKP1, P52286 (P52286 whole entry): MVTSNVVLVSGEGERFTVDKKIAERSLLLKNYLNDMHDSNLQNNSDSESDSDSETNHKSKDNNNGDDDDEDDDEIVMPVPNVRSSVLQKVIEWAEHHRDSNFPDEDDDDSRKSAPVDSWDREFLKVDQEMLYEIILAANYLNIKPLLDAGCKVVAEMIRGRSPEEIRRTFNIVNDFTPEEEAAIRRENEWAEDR

Variant	effect of a mutation on the interaction
P188L	disrupting interaction strength
S163N	disrupting interaction strength

The next lines start with the values.

effect of a mutation on the interaction	Variant
disrupting interaction strength	P188S
disrupting interaction strength	C211Y
disrupting interaction strength	Q167R
disrupting interaction strength	S169P

Variants of: B1
Conditions: with skp1_yeast SKP1, P52286
Remark: another data set of the same source

effect of a mutation on the interaction	Variant
decreasing interaction	L187D;E190A
